Measured values as given in US20230321241A1, “CANCER PEPTIDE VACCINE AND METHOD OF PREPARING THE SAME” (BrightPath Biotherapeutics Co., Ltd., priority 2020, published 2023).
Where no end group is shown, it is not given here.

Key:
[1] = Test Example 1: examination of peptide solubility in citrate/phosphate buffers; assay type: physicochemical; settings: room temperature 24 hours
Protocol: The solubility of a peptide drug substance (purity 95 w/w % or more, PPL) was examined for the peptides Asn-Val-Leu-His-Phe-Phe-Asn-Ala-Pro-Leu (SEQ ID NO: 1), Ala-Ser-Leu-Asp-Ser-Asp-Pro-Trp-Val (SEQ ID NO: 2), Lys-Leu-Lys-His-Tyr-Gly-Pro-Gly-Trp-Val (SEQ ID NO: 3), and Leu-Leu-Gln-Ala-Glu-Ala-Pro-Arg-Leu (SEQ ID NO: 4), respectively. First, 10 mM citrate buffers (Citrate) or phosphate buffers (Phosphate) containing 270 mM trehalose from pH 3.0 to pH 8.0 were prepared and the peptide drug substance was added to each buffer so as to provide a predetermined peptide concentration. The mixture was stirred and allowed to stand at room temperature for 24 hours to evaluate whether the peptide drug substance was dissolved.

[2] = Test Example 3: peptide stability in solution (HPLC); assay type: physicochemical; settings: for % difference vs T = 0 / Conc.: buffers as Table 3
Protocol: Based on the results of Test Example 1 and Test Example 2, the stability of the peptides was examined. First, peptide drug substances (purity 95 w/w % or more, PPL) were dissolved in the buffers shown in Table 3, respectively, to prepare peptide solutions of the peptides of SEQ ID NOs: 1 to 4 at the final concentration of 10 mg/mL. […] In the evaluation, samples were collected at the time of preparation of the peptide solution, after 24 hours, and after 48 hours, and stored at −20° C. The peptide concentration was measured by HPLC after all the samples were collected, and compared with the peptide concentration at the time of preparation (T=0).

[3] = Example 1: peptide cocktail preparation standing at room temperature for 6 hours; assay type: physicochemical; settings: for HPLC analysis: peptide concentration: in peptide cocktail preparation of Example 1 (with GM-CSF)
Protocol: Using the lyophilized peptide preparations produced in Preparation Example 1, a peptide cocktail preparation to be administered was prepared as follows. First, 1 mL of purified water was added to each lyophilized peptide preparation, and the lyophilized product in the vial was dissolved to prepare a peptide solution. All the peptide solutions were collected from the respective vials and transferred to a different vial to provide a peptide cocktail preparation. Also, a GM-CSF lyophilized preparation (product name: Lukine ([…]), Sanofi) was dissolved in 1 mL of purified water and 0.6 mL of the solution thus obtained was added as an adjuvant to 1.4 mL of the peptide cocktail preparation to provide a peptide cocktail preparation to be administered. Then, the peptide cocktail preparation thus obtained was allowed to stand at room temperature for 6 hours, and evaluated for changes in peptide concentration, pH (25° C.), and osmotic pressure compared with those before standing.

[4] = Preparation Example 2: stability of lyophilized peptide cocktail preparation; assay type: physicochemical; settings: T = 1 (1 month at 25° C., humidity 60%)
Protocol: To produce a lyophilized peptide cocktail preparation and confirm the stability of the preparation, 500 mL of a peptide cocktail preparation was prepared in the same manner as in Example 1, and then the preparation was aseptically filled to a glass vial at 1 mL per vial and lyophilized to provide a lyophilized peptide cocktail preparation. Then, immediately after the preparation (T=0) or after storage at room temperature (25° C., humidity 60%) for 1 month from the preparation (T=1), 1 mL of purified water was added to the lyophilized preparation to dissolve the peptides. Appearance, solubility, peptide stability, and pH were evaluated.

[5] = system: PD-L1-Positive Non-Small-Cell Lung Cancer; settings: pembrolizumab alone in similar subjects; cited from earlier work

For LLQAEAPRL [SEQ ID NO: 4], the “result (whether peptide drug substance was dissolved)” value (from here on “result”) ([1]; 10 mM Citrate pH 3.0, 270 mM trehalose, final conc. 20 mg/mL) was “dissolved”, the “result” value ([1]; 10 mM Citrate pH 3.5, 270 mM trehalose, final conc. 20 mg/mL) was “dissolved” and the “result” value ([1]; 10 mM Citrate pH 4.0, 270 mM trehalose, final conc. 28.6 mg/mL) was “dissolved”. For the same substance, the “result” value ([1]; 10 mM Citrate pH 5.0, 270 mM trehalose, final conc. 20 mg/mL) was “dissolved”, the “result” value ([1]; 10 mM Citrate pH 6.0, 270 mM trehalose, final conc. 28.6 mg/mL) was “dissolved” and the “result” value ([1]; 10 mM Phosphate pH 7.0, 270 mM trehalose, final conc. 25 mg/mL) was “dissolved”. The “result” value ([1]; 10 mM Phosphate pH 7.5, 270 mM trehalose, final conc. 25 mg/mL) was “dissolved”, the “result” value ([1]; 10 mM Phosphate pH 8.0, 270 mM trehalose, final conc. 25 mg/mL) was “dissolved” and the “% difference vs T = 0” value ([2]; T = 24 h, 25° C./60% RH) was −1%. The Conc. ([2]; T = 24 h, 25° C./60% RH) was 10470 µg/mL, the “% difference vs T = 0” value ([2]; T = 24 h, 40° C./75% RH) was 1% and the Conc. ([2]; T = 24 h, 40° C./75% RH) was 10680 µg/mL. For the same substance, the “% difference vs T = 0” value ([2]; T = 48 h, 25° C./60% RH) was −4%, the Conc. ([2]; T = 48 h, 25° C./60% RH) was 10160 µg/mL and the “% difference vs T = 0” value ([2]; T = 48 h, 40° C./75% RH) was −1%. The Conc. ([2]; T = 48 h, 40° C./75% RH) was 10470 µg/mL, the “T0 Conc.” value ([2]; time of preparation, buffers: SEQ1 pH 3.5 50 mM Gly-HCl + 200 mM trehalose, SEQ2 pH 4.0, SEQ3 pH 7.0, SEQ4 pH 6.0 in 10 mM citrate + 270 mM trehalose) was 10.61 mg/mL and the “HPLC analysis: peptide concentration” value ([3]; T = 0 hour) was “SEQ ID NO: 4: 2.8 mg/mL”. The “HPLC analysis: peptide concentration” value ([3]; T = 6 hours, room temperature) was 3.0 mg/mL, the “HPLC analysis: % vs T0” value ([3]; in peptide cocktail preparation of Example 1, T = 6 hours, room temperature) was 106.4% and the “change in peptide amount % vs T = 0 (100%) (HPLC analysis)” value [4] was “SEQ ID NO: 4: 101.2%”.
In the case of “pembrolizumab: anti-PD-1 antibody (Merck & Co., Inc.)”, the response rate [5] is given as 45%.
